Data as given in the Immune Epitope Database (IEDB).

Experiments:
HLA-A*02:02 [1] = experiment: IEDB peptide-MHC binding, cellular MHC/competitive/fluorescence; ≥ and ≤ were set here for values at or beyond the usual limits of such assays
HLA-A*02:03 = experiment: as above
HLA-A*68:02 [2] = experiment: as above
HLA-A*02:01 [3] = experiment: IEDB peptide-MHC binding, purified MHC/competitive/radioactivity; ≥ and ≤ were set here for values at or beyond the usual limits of such assays
HLA-A*02:06 [4] = experiment: as above
HLA-A*02:01 [5] = experiment: IEDB peptide-MHC binding, cellular MHC/competitive/fluorescence; ≥ and ≤ were set here for values at or beyond the usual limits of such assays
HLA-A*02:06 [6] = experiment: as above
HLA-A*02:02 [7] = experiment: IEDB peptide-MHC binding, purified MHC/competitive/radioactivity; ≥ and ≤ were set here for values at or beyond the usual limits of such assays
HLA-A*68:02 [8] = experiment: as above
[9] = source organism: Hepacivirus hominis
[10] = source organism: Vaccinia virus WR
[11] = source organism: Influenza A virus
[12] = source organism: Mammarenavirus guanaritoense

Sequence | IC50 (HLA-A*02:01 [5]; [10]) | IC50 (HLA-A*02:02 [1]; [10]) | IC50 (HLA-A*02:03; [10]) | IC50 (HLA-A*68:02 [2]; [10]) | IC50 (HLA-A*02:06 [4]; [10]) | IC50 (HLA-A*02:06 [6]; [10]) | IC50 (HLA-A*02:02 [7]; [10]) | also measured
LLLGLLLLCV | – | – | – | – | – | – | – | IC50 (HLA-A*02:02 [1]; [9]): 16.9 µM; IC50 (HLA-A*02:03; [9]): 10.3 µM; IC50 (HLA-A*68:02 [2]; [9]): 57.9 µM; IC50 (HLA-A*02:01 [3]; [9]): 2.18 µM; IC50 (HLA-A*02:06 [4]; [9]): 5 µM
IAGLKIEEI | 23.2 µM | 7.66 µM | 6.09 µM | 27.5 µM | 1.97 µM | – | – | –
ALWDSNFFT | – | – | 28.2 µM | 7.41 µM | – | 23.1 µM | 1.06 µM | IC50 (HLA-A*02:01 [3]; [10]): 3.69 µM
VVECLTVPNI | – | 8.42 µM | 19.6 µM | – | 0.301 µM | – | – | IC50 (HLA-A*02:01 [3]; [10]): 4.28 µM; IC50 (HLA-A*68:02 [8]; [10]): 3.75 µM
IQYRQQLELA | ≥ 70 µM | – | 8.47 µM | 12.9 µM | – | ≥ 70 µM | 4.32 µM | –
SMGVYQILA | – | – | – | – | – | – | – | IC50 (HLA-A*02:03; [11]): 7.05 µM; IC50 (HLA-A*02:06 [6]; [11]): 10.4 µM; IC50 (HLA-A*68:02 [2]; [11]): 16.8 µM; IC50 (HLA-A*02:01 [3]; [11]): 0.978 µM; IC50 (HLA-A*02:02 [7]; [11]): 0.518 µM
PIPYSRVNHA | 54 µM | 11.7 µM | 15.3 µM | 48.3 µM | 1.45 µM | – | – | –
TVDFTDCRT | 33.6 µM | 9.68 µM | 27 µM | – | 0.339 µM | – | – | IC50 (HLA-A*68:02 [8]; [10]): 0.612 µM
VIVVPVIDRL | 14.8 µM | – | 59 µM | 31.4 µM | – | 11.1 µM | 4.57 µM | –
PIPMSRLFM | – | – | 9.13 µM | ≥ 70 µM | – | 31.4 µM | 3.89 µM | –
VATFRDMLL | 8.94 µM | – | 9.94 µM | 5.92 µM | – | 7.71 µM | 2.53 µM | –
HVLLPFYET | – | 16.4 µM | 18.6 µM | – | 1.74 µM | – | – | IC50 (HLA-A*02:01 [3]; [10]): 2.49 µM; IC50 (HLA-A*68:02 [8]; [10]): 0.924 µM
LVIRNEVNDT | 12.6 µM | 5.5 µM | 15.2 µM | – | 2.17 µM | – | – | IC50 (HLA-A*68:02 [8]; [10]): 0.854 µM
SAFDERRNRYL | – | – | – | – | – | – | – | IC50 (HLA-A*02:01 [5]; [11]): 17.8 µM; IC50 (HLA-A*02:03; [11]): 5.17 µM; IC50 (HLA-A*02:06 [6]; [11]): 34.7 µM; IC50 (HLA-A*68:02 [2]; [11]): 5.9 µM; IC50 (HLA-A*02:02 [7]; [11]): 1.28 µM
IIDLLLPST | 5.65 µM | 15.1 µM | 10.3 µM | ≥ 70 µM | 1.12 µM | – | – | –
ETQSGALEVL | 5.14 µM | 5.31 µM | 14.5 µM | – | 1.58 µM | – | – | IC50 (HLA-A*68:02 [8]; [10]): 0.058 µM
KLISEKETL | 10.2 µM | – | 24.7 µM | ≥ 70 µM | – | 7.65 µM | 0.841 µM | –

Sequence | IC50 (HLA-A*02:01 [5]; [10]) | IC50 (HLA-A*02:02 [1]; [10]) | IC50 (HLA-A*02:03; [10]) | IC50 (HLA-A*68:02 [2]; [10]) | IC50 (HLA-A*02:06 [4]; [10]) | IC50 (HLA-A*02:06 [6]; [10]) | IC50 (HLA-A*02:02 [7]; [10]) | also measured
SANMDWRSLT | 55.7 µM | – | 11.3 µM | 15.4 µM | – | 48.1 µM | 1.79 µM | –
QAIMDKNIIL | – | – | – | – | – | – | – | IC50 (HLA-A*02:03; [11]): 11.4 µM; IC50 (HLA-A*02:06 [6]; [11]): 13.4 µM; IC50 (HLA-A*68:02 [2]; [11]): 8.92 µM; IC50 (HLA-A*02:01 [3]; [11]): 1.02 µM; IC50 (HLA-A*02:02 [7]; [11]): 0.937 µM
VTPEYIKDL | 9.23 µM | 10.4 µM | ≥ 70 µM | ≥ 70 µM | 1.76 µM | – | – | –
NLYISDYKM | 6.17 µM | – | 25.3 µM | 14.9 µM | – | 11 µM | 2.79 µM | –
KISVEKIKQT | – | – | 8.96 µM | 11.2 µM | – | 21 µM | 1.23 µM | IC50 (HLA-A*02:01 [3]; [10]): 4.67 µM
EVRYIDITNI | 8.61 µM | 12.9 µM | 5.81 µM | – | 4.34 µM | – | – | IC50 (HLA-A*68:02 [8]; [10]): 0.041 µM
LIFNVKSKLL | 25.5 µM | – | 6.69 µM | 32.6 µM | – | 28.5 µM | 2.39 µM | –
YVLFVKKML | 5.15 µM | 31.1 µM | 12 µM | 11.4 µM | 2.54 µM | – | – | –
RQQLEDIFM | 10 µM | 5.73 µM | 26.9 µM | ≥ 70 µM | 0.944 µM | – | – | –
NTVSSFQV | – | – | – | – | – | – | – | IC50 (HLA-A*02:01 [5]; [11]): 52.7 µM; IC50 (HLA-A*02:02 [1]; [11]): ≥ 70 µM; IC50 (HLA-A*02:03; [11]): 60.1 µM; IC50 (HLA-A*02:06 [4]; [11]): 4.48 µM; IC50 (HLA-A*68:02 [8]; [11]): 0.566 µM
STTGEWPLI | 8.57 µM | 21.1 µM | 44.5 µM | – | 1.24 µM | – | – | IC50 (HLA-A*68:02 [8]; [10]): 0.602 µM
CAVIPFDDI | 17 µM | 15.8 µM | 10 µM | – | 1.16 µM | – | – | IC50 (HLA-A*68:02 [8]; [10]): 0.023 µM
CNYTRFWYI | – | – | – | – | – | – | – | IC50 (HLA-A*02:02 [1]; [12]): 10.1 µM; IC50 (HLA-A*02:03; [12]): 5.31 µM; IC50 (HLA-A*02:01 [3]; [12]): 1.66 µM; IC50 (HLA-A*02:06 [4]; [12]): 0.258 µM; IC50 (HLA-A*68:02 [8]; [12]): 0.344 µM
NAILHNIYRL | – | 5.61 µM | 10.2 µM | – | 0.576 µM | – | – | IC50 (HLA-A*02:01 [3]; [10]): 0.54 µM; IC50 (HLA-A*68:02 [8]; [10]): 0.724 µM
YTGGYDVSL | – | – | 6.05 µM | 6.67 µM | – | 20.3 µM | 1.99 µM | IC50 (HLA-A*02:01 [3]; [10]): 3.74 µM
FANVISKIYT | 15.7 µM | 7.79 µM | 5.31 µM | 5.49 µM | 1.66 µM | – | – | –
